Experimental data published in US11419948B2, “Functionalized microgels with fibrin binding elements” (Georgia Tech Research Corporation, priority 2013, dated 2022).

T1: fibrin (Homo sapiens, UniProt P02671+P02675+P02679)
T1 sequence (P02671 36-866 limits assumed): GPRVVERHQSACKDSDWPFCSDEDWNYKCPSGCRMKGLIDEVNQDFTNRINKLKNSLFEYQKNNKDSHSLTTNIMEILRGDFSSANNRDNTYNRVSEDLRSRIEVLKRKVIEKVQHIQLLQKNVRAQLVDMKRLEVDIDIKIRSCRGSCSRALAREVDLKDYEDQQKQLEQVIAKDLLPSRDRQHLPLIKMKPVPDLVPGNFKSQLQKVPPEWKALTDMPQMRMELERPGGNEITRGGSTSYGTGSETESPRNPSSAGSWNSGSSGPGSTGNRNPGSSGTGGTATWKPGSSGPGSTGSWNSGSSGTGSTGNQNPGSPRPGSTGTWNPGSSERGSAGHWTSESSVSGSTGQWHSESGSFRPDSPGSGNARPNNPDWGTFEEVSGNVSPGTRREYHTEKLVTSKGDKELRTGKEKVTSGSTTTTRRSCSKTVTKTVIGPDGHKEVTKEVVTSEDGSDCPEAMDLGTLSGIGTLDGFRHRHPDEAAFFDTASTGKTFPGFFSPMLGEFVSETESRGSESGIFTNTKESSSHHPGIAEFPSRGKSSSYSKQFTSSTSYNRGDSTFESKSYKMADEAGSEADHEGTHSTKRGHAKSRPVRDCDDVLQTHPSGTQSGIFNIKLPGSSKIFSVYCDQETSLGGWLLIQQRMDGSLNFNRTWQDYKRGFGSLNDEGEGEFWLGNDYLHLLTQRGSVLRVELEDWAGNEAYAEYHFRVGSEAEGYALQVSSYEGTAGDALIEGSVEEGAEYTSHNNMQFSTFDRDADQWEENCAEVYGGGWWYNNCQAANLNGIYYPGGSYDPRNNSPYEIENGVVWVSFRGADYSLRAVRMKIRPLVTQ
T1 sequence (P02675 45-491 limits assumed): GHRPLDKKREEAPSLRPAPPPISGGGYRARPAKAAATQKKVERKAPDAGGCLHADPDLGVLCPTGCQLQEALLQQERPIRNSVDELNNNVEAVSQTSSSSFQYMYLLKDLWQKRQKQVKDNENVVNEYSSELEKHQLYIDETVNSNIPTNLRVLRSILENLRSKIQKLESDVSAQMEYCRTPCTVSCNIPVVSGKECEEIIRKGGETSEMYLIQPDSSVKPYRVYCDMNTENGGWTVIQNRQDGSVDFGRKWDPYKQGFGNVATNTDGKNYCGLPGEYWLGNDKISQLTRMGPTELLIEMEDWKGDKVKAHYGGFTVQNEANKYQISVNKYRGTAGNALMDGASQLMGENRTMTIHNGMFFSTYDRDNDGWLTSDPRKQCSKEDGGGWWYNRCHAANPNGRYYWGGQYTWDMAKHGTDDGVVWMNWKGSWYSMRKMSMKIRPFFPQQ
T1 sequence (P02679 27-453): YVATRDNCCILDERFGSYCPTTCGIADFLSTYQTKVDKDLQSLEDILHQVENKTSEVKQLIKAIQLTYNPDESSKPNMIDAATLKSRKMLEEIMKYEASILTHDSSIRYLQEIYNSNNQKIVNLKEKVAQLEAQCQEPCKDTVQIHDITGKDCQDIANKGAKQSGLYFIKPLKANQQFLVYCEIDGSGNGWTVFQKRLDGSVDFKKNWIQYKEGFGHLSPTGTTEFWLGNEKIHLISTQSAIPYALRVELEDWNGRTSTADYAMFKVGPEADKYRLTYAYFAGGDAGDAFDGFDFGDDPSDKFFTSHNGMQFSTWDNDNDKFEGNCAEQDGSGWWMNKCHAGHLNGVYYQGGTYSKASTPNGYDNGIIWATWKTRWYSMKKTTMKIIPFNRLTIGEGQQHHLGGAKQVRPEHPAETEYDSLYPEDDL

B1: PLPs: ultra-low crosslinked pNIPAm-AAc microgels conjugated to fibrin-specific sdFv H6 (conjugate)
VH: QVQLLESGGGLVQPGGSLRLSCAASGDRFTHNDMGWVRQAPGKGLEWVSTIPTTDGSTYYADSVKGRFTISRDNSKSTLYLQMNSLRAEDTAVYYCATGYMWKAPAYVKYWGQGTLVTVSSAAAEQKLISEEDLNSAAHYTDIG
B2: H6: fibrin-specific human sdFv clone from phage biopanning, SEQ ID NO: 1 (protein)
VHH: B1 VH

Columns and labels:
fibrin = target: T1, fibrin; test: Interferometry (Fortébio Blitz) binding of sdFv-microgels to fibrin layer; conditions: several concentrations
Procedure: Ultralow crosslinked (ULC) microgels (microgels) with highly deformable, dendritic architecture were prepared using standard precipitation polymerization techniques previously described, Clemetson, K. J., Thrombosis Research, 129:220-224 (2012). A 95% pNIPAm/5% AAc composition (poly(N-isopropylacrylamide-co-acrylic acid) was utilized for microgel synthesis which results in microscaffolds ˜1-μm diameter in the swollen state. Co-polymerization with acrylic acid was utilized to allow for carboxylic acid chemoligation sites for sdFv attachment, Fries, et al., British Journal of Anesthesia, 105:116-121 (2010); Granville-Chapman, et al., Injury, 42:447-459 (2011). Following synthesis, microgels were purified using ultracentrifugation and conjugated to fibrin specific sdFvs using standard EDC/NHS chemistry. For confocal fluorescence microscopy experiments, sdFvs were also labeled with maleimide-Alexa Fluor-488 following conjugation to the microgels. To determine basic microgels properties, the particles were characterized using dynamic light scattering to determine the hydrodynamic radius and atomic and force microscopy imaging to characterize morphology. Finally, to ensure that microgels coupled to fibrin-specific sdFvs retained fibrin-binding capabilities, binding of sdFv-microgels to fibrin was determined through interferometry analysis utilizing the Fortébio Blitz system. […]

human plasma components = test: Qualitative human plasma assay (protein A pull down, polyacrylamide gel); format: binding; conditions: 30 minutes room temperature
Procedure: H6 binding was determined through both qualitative and quantitative human plasma assays. The qualitative assay involved incubating either H6, the non-binding negative control, S11, or saline with human plasma at room temperature for 30 minutes. The plasma mixtures were subsequently incubated with protein A beads with the intent to pull down all IgG isotypes (including H6 and S11).
The eluants from the protein A pull down experiment were run on a polyacrylamide gradient gel to visualize any band shifts present in the H6-plasma solution that would indicate a binding interaction not present in the S11-plasma or saline-plasma solutions.

Row | Molecule | binding of sdFv-microgels to the fibrin layer (fibrin) | non-specific binding to human plasma components (band shifts) (human plasma components)
1 | B1 | increased binding to the fibrin layer with increasing concentrations | 
2 | B2 |  | did not non-specifically bind
